Patent US20150344570A1 (published 2015)

B1: GpH7-A5/GpH7-B3 variant A327_01G/GpL16-k0 (antibody, human IgG1, kappa)
heavy 1: not shown
heavy 2: not shown
light: DIVMTQSPLSLPVTPGEPASISCQASESLVHSNRNTYLHWYLQKPGQSPQLLIYKVSNRFSGVPDRFSGSGSGTDFTLKISRVEAEDVGVYYCSQNTHVPPTFGQGTKVEIERTVAAPSVFIFPPSDEQLKSGTASVVCLLNNFYPREAKVQWKVDNALQSGNSQESVTEQDSKDSTYSLSSTLTLSKADYEKHKVYACEVTHQGLSSPVTKSFNRGEC
notes: He Ab; alteration in one H chain only; also called He Ab
B2: GpH7-A5/GpH7-B3 variant A327_07I/GpL16-k0 (antibody, human IgG1, kappa)
heavy 1: not shown
heavy 2: not shown
light: B1 light
notes: as for B1
B3: GpH7-A5/GpH7-B3 variant A327_10E/GpL16-k0 (antibody, human IgG1, kappa)
heavy 1: not shown
heavy 2: not shown
light: B1 light
notes: as for B1
B4: GpH7-A5/GpH7-B3 variant A327_18N/GpL16-k0 (antibody, human IgG1, kappa)
heavy 1: not shown
heavy 2: not shown
light: B1 light
notes: as for B1
B5: GpH7-A5/GpH7-B3 variant A330_01G/GpL16-k0 (antibody, human IgG1, kappa)
heavy 1: not shown
heavy 2: not shown
light: B1 light
notes: as for B1
B6: GpH7-A5/GpH7-B3 variant A330_05P/GpL16-k0 (antibody, human IgG1, kappa)
heavy 1: not shown
heavy 2: not shown
light: B1 light
notes: as for B1
B7: GpH7-A5/GpH7-B3 variant K326_15Y/GpL16-k0 (antibody, human IgG1, kappa)
heavy 1: not shown
heavy 2: not shown
light: B1 light
notes: as for B1
B8: GpH7-A5/GpH7-B3 variant K326_16H/GpL16-k0 (antibody, human IgG1, kappa)
heavy 1: not shown
heavy 2: not shown
light: B1 light
notes: as for B1
B9: GpH7-A5/GpH7-B3 variant K326_20W/GpL16-k0 (antibody, human IgG1, kappa)
heavy 1: not shown
heavy 2: not shown
light: B1 light
notes: as for B1
B10: GpH7-A5/GpH7-B3 variant K334_02A/GpL16-k0 (antibody, human IgG1, kappa)
heavy 1: not shown
heavy 2: not shown
light: B1 light
notes: as for B1
B11: GpH7-A5/GpH7-B3 variant K334_05P/GpL16-k0 (antibody, human IgG1, kappa)
heavy 1: not shown
heavy 2: not shown
light: B1 light
notes: as for B1
B12: GpH7-A5/GpH7-B3 variant K334_10E/GpL16-k0 (antibody, human IgG1, kappa)
heavy 1: not shown
heavy 2: not shown
light: B1 light
notes: as for B1
B13: GpH7-A5/GpH7-B3 variant K334_12R/GpL16-k0 (antibody, human IgG1, kappa)
heavy 1: not shown
heavy 2: not shown
light: B1 light
notes: as for B1
B14: GpH7-A5/GpH7-B3 variant K334_18N/GpL16-k0 (antibody, human IgG1, kappa)
heavy 1: not shown
heavy 2: not shown
light: B1 light
notes: as for B1
B15: GpH7-A5/GpH7-B3 variant K334_20W/GpL16-k0 (antibody, human IgG1, kappa)
heavy 1: not shown
heavy 2: not shown
light: B1 light
notes: as for B1
B16: GpH7-A5/GpH7-B3 variant L328_03V/GpL16-k0 (antibody, human IgG1, kappa)
heavy 1: not shown
heavy 2: not shown
light: B1 light
notes: as for B1
B17: GpH7-A5/GpH7-B3 variant L328_04F/GpL16-k0 (antibody, human IgG1, kappa)
heavy 1: not shown
heavy 2: not shown
light: B1 light
notes: as for B1
B18: GpH7-A5/GpH7-B3 variant L328_07I/GpL16-k0 (antibody, human IgG1, kappa)
heavy 1: not shown
heavy 2: not shown
light: B1 light
notes: as for B1
B19: GpH7-A5/GpH7-B3 variant L328_09D/GpL16-k0 (antibody, human IgG1, kappa)
heavy 1: not shown
heavy 2: not shown
light: B1 light
notes: as for B1
B20: GpH7-A5/GpH7-B3 variant L328_10E/GpL16-k0 (antibody, human IgG1, kappa)
heavy 1: not shown
heavy 2: not shown
light: B1 light
notes: as for B1
B21: GpH7-A5/GpH7-B3 variant L328_15Y/GpL16-k0 (antibody, human IgG1, kappa)
heavy 1: not shown
heavy 2: not shown
light: B1 light
notes: as for B1
B22: GpH7-A5/GpH7-B3 variant L328_19Q/GpL16-k0 (antibody, human IgG1, kappa)
heavy 1: not shown
heavy 2: not shown
light: B1 light
notes: as for B1
B23: GpH7-A5/GpH7-B3 variant N325_01G/GpL16-k0 (antibody, human IgG1, kappa)
heavy 1: not shown
heavy 2: not shown
light: B1 light
notes: as for B1
B24: GpH7-A5/GpH7-B3 variant N325_03V/GpL16-k0 (antibody, human IgG1, kappa)
heavy 1: not shown
heavy 2: not shown
light: B1 light
notes: as for B1
B25: GpH7-A5/GpH7-B3 variant N325_04F/GpL16-k0 (antibody, human IgG1, kappa)
heavy 1: not shown
heavy 2: not shown
light: B1 light
notes: as for B1
B26: GpH7-A5/GpH7-B3 variant N325_06M/GpL16-k0 (antibody, human IgG1, kappa)
heavy 1: not shown
heavy 2: not shown
light: B1 light
notes: as for B1
B27: GpH7-A5/GpH7-B3 variant N325_07I/GpL16-k0 (antibody, human IgG1, kappa)
heavy 1: not shown
heavy 2: not shown
light: B1 light
notes: as for B1
B28: GpH7-A5/GpH7-B3 variant N325_08L/GpL16-k0 (antibody, human IgG1, kappa)
heavy 1: not shown
heavy 2: not shown
light: B1 light
notes: as for B1
B29: GpH7-A5/GpH7-B3 variant N325_09D/GpL16-k0 (antibody, human IgG1, kappa)
heavy 1: not shown
heavy 2: not shown
light: B1 light
notes: as for B1
B30: GpH7-A5/GpH7-B3 variant N325_13S/GpL16-k0 (antibody, human IgG1, kappa)
heavy 1: not shown
heavy 2: not shown
light: B1 light
notes: as for B1
B31: GpH7-A5/GpH7-B3 variant N325_20W/GpL16-k0 (antibody, human IgG1, kappa)
heavy 1: not shown
heavy 2: not shown
light: B1 light
notes: as for B1
B32: GpH7-A5/GpH7-B3 variant P331_03V/GpL16-k0 (antibody, human IgG1, kappa)
heavy 1: not shown
heavy 2: not shown
light: B1 light
notes: as for B1
B33: GpH7-A5/GpH7-B3 variant P331_04F/GpL16-k0 (antibody, human IgG1, kappa)
heavy 1: not shown
heavy 2: not shown
light: B1 light
notes: as for B1
B34: GpH7-A5/GpH7-B3 variant P331_06M/GpL16-k0 (antibody, human IgG1, kappa)
heavy 1: not shown
heavy 2: not shown
light: B1 light
notes: as for B1
B35: GpH7-A5/GpH7-B3 variant S324_16H/GpL16-k0 (antibody, human IgG1, kappa)
heavy 1: not shown
heavy 2: not shown
light: B1 light
notes: also called He Ab
B36: GpH7-A5/GpH7-B3 variant S324_20W/GpL16-k0 (antibody, human IgG1, kappa)
heavy 1: not shown
heavy 2: not shown
light: B1 light
notes: also called He Ab
B37: GpH7-A5/GpH7-B3 variant S337_01G/GpL16-k0 (antibody, human IgG1, kappa)
heavy 1: not shown
heavy 2: not shown
light: B1 light
notes: also called He Ab
B38: GpH7-A5/GpH7-B3 variant S337_04F/GpL16-k0 (antibody, human IgG1, kappa)
heavy 1: not shown
heavy 2: not shown
light: B1 light
notes: also called He Ab
B39: GpH7-A5/GpH7-B3 variant T335_05P/GpL16-k0 (antibody, human IgG1, kappa)
heavy 1: not shown
heavy 2: not shown
light: B1 light
notes: also called He Ab
B40: GpH7-A5/GpH7-B3 variant T335_06M/GpL16-k0 (antibody, human IgG1, kappa)
heavy 1: not shown
heavy 2: not shown
light: B1 light
notes: also called He Ab
B41: GpH7-A5/GpH7-B3 variant Y300_08L/GpL16-k0 (antibody, human IgG1, kappa)
heavy 1: not shown
heavy 2: not shown
light: B1 light
notes: also called He Ab

Molecular target: T1, FcγRIIa H (FcgRIIa type H, His at position 131), extracellular domain with C-terminal His tag (human, UniProt P12318 34-217)
T1 construct: extracellular domain; also called 2aH; FcgRIIa H; not shown: His tag at the C terminus
T1 sequence (looked up): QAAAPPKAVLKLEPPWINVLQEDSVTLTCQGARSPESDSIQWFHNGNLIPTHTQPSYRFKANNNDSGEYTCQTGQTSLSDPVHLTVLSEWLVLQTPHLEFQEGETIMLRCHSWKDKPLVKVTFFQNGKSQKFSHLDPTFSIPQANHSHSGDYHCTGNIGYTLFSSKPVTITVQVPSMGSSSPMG
Assay: SPR (Biacore), relative binding, GpH7-A5/GpH7-B3/GpL16-k0 = 100

Row | Binder | He/Con_2aH
1 | B1 | 97.2 % of control
2 | B2 | 58.4 % of control
3 | B3 | 91.3 % of control
4 | B4 | 66.8 % of control
5 | B5 | 99 % of control
6 | B6 | 85.7 % of control
7 | B7 | 98.3 % of control
8 | B8 | 97.9 % of control
9 | B9 | 83.3 % of control
10 | B10 | 97 % of control
11 | B11 | 97.6 % of control
12 | B12 | 98.2 % of control
13 | B13 | 99.7 % of control
14 | B14 | 99.7 % of control
15 | B15 | 97.6 % of control
16 | B16 | 97.8 % of control
17 | B17 | 71.7 % of control

Row | Binder | He/Con_2aH
18 | B18 | 93.9 % of control
19 | B19 | 58.5 % of control
20 | B20 | 55.5 % of control
21 | B21 | 90 % of control
22 | B22 | 86.8 % of control
23 | B23 | 56.8 % of control
24 | B24 | 45.2 % of control
25 | B25 | 33.4 % of control
26 | B26 | 48.2 % of control
27 | B27 | 38.1 % of control
28 | B28 | 52 % of control
29 | B29 | 53.1 % of control
30 | B30 | 79.7 % of control
31 | B31 | 47.2 % of control
32 | B32 | 82.5 % of control
33 | B33 | 84.7 % of control
34 | B34 | 85.1 % of control

Molecular target: T2, FcγRIIb, extracellular domain with C-terminal His tag (human, UniProt P31994 43-217)
T2 construct: extracellular domain; also called 2b; FcgRIIb; not shown: His tag at the C terminus
T2 sequence (looked up): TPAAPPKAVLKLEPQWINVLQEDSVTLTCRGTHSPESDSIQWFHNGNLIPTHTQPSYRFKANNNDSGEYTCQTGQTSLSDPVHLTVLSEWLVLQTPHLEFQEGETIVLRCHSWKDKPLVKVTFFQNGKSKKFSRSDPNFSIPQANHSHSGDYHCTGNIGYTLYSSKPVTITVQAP
Assay: as above

Row | Binder | He/Con_2b
35 | B1 | 116 % of control
36 | B2 | 127 % of control
37 | B3 | 140 % of control
38 | B4 | 113 % of control
39 | B5 | 104 % of control
40 | B6 | 137 % of control
41 | B7 | 159 % of control
42 | B8 | 119 % of control
43 | B9 | 148 % of control
44 | B10 | 108 % of control
45 | B11 | 105 % of control
46 | B12 | 114 % of control
47 | B13 | 111 % of control
48 | B14 | 115 % of control
49 | B15 | 104 % of control
50 | B16 | 126 % of control
51 | B17 | 219 % of control

Row | Binder | He/Con_2b
52 | B18 | 160 % of control
53 | B19 | 199 % of control
54 | B20 | 172 % of control
55 | B21 | 193 % of control
56 | B22 | 105 % of control
57 | B23 | 101 % of control
58 | B24 | 111 % of control
59 | B25 | 143 % of control
60 | B26 | 217 % of control
61 | B27 | 171 % of control
62 | B28 | 197 % of control
63 | B29 | 124 % of control
64 | B30 | 177 % of control
65 | B31 | 169 % of control
66 | B32 | 119 % of control
67 | B33 | 110 % of control
68 | B34 | 102 % of control

Molecular target: T3, FcγRIIIa extracellular domain with C-terminal His tag (human, UniProt P08637 17-208)
T3 construct: extracellular domain; also called 3a; FcgRIIIa
T3 sequence (P08637 17-208): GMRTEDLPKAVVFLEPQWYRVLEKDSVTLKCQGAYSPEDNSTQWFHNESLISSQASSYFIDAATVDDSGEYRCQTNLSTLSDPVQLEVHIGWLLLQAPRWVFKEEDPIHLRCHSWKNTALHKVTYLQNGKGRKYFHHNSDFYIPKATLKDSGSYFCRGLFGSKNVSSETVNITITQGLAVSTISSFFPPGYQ
Assay: SPR, binding relative to GpH7-A5/GpH7-B3/GpL16-k0 = 100
Protocol: (§1) The heterodimerized antibodies He Abs in which one of the H chains was introduced with an alteration were assayed for their binding activities to each activating FcγR and inhibitory FcγR according to the method described in Example 4. […] The activating FcγRs in FIGS. 26, 27, 28, and 29 are FcγRIa, FcγRIIa (R), FcγRIIa (H), and FcγRIIIa, respectively.
(§2) Analysis of interaction between objective antibody and the FcγR was carried out using Biacore T100 (GE Healthcare). HBS-EP+ (GE Healthcare) was used as the running buffer, and the measurement temperature was set to 25° C. Chips produced by immobilizing the antigen peptide by the amine coupling method to a Series S Sencor Chip CM5 (GE Healthcare), or alternatively, chips produced by allowing preliminarily biotinylated antigen peptides to interact with and immobilize onto a Series S Sensor Chip SA (certified) (GE Healthcare) were used. Antibodies of interest were captured onto an antigen peptide-immobilized chip, and allowed to interact to each FcγR diluted with running buffer. To regenerate and repeatedly use the chip, the antibodies captured on the chip were washed off by reacting 10 mM glycine-HCl, pH 1.5.

Row | Binder | He/Con_3a
69 | B35 | 104 % of control
70 | B36 | 102 % of control
71 | B37 | 102 % of control
72 | B38 | 101 % of control
73 | B39 | 105 % of control
74 | B40 | 102 % of control
75 | B41 | 105 % of control

Molecular target: T4, FcγRIIb extracellular domain with C-terminal His tag (human, UniProt P31994 43-217)
T4 construct: extracellular domain; also called 2b; FcgRIIb
T4 sequence (looked up): T2 sequence (looked up)
Assay: as above
Protocol: as §1, §2

Row | Binder | He/Con_2b
76 | B35 | 83.5 % of control
77 | B36 | 87.5 % of control
78 | B37 | 92 % of control
79 | B38 | 97.8 % of control
80 | B39 | 99.9 % of control
81 | B40 | 99.4 % of control
82 | B41 | 73.6 % of control
